# Data published in PMC4764565.
# Molecular target: EphB2-KD-GFP (UniProt P54763)
# Assay: co-IP; anti-GFP antibody on ProteinA/G agarose, overnight, pre-cleared lysates of co-transfected HEK293 cells (10mM Tris-Cl pH 8, 137 mM NaCl, 2mM EDTA, 1% NP40); blot for Myc; in the ligand experiments cells were starved 2 hr in OPTIMEM and incubated 15 min at 37°C with pre-clustered Fc, eB2-Fc or eA3-Fc (1.5 μg/ml), Netrin-1 (250 ng/ml) or eB2-Fc+Netrin-1 before lysis
# Sequence of EphB2-KD-GFP (P54763 19-986): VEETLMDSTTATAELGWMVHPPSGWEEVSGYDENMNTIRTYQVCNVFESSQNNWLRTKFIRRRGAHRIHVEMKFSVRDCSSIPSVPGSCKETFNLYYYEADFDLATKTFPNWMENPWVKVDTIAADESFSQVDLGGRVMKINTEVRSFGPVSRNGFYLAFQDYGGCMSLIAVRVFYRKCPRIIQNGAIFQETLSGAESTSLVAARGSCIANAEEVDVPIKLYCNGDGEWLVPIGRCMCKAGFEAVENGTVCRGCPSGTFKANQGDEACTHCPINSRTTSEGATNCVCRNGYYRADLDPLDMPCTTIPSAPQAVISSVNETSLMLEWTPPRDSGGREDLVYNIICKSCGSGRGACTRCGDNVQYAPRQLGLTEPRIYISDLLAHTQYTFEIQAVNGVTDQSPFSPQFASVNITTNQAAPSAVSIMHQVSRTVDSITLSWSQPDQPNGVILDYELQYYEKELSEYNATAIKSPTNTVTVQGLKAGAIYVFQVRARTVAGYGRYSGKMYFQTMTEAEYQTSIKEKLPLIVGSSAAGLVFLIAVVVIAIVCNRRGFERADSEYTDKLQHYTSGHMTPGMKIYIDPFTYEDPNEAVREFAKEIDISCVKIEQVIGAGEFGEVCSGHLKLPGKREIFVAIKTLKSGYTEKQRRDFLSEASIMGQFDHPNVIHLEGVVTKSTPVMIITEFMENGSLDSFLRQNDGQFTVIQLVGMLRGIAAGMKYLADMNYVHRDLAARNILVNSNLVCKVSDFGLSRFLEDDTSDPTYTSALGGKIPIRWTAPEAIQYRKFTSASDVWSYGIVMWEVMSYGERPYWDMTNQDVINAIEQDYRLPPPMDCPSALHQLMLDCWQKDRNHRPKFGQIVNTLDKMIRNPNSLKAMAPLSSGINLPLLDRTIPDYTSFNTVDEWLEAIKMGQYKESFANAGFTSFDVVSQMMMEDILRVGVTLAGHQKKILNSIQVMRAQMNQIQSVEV
# Sequence of Unc5c-Myc (O08747 41-931): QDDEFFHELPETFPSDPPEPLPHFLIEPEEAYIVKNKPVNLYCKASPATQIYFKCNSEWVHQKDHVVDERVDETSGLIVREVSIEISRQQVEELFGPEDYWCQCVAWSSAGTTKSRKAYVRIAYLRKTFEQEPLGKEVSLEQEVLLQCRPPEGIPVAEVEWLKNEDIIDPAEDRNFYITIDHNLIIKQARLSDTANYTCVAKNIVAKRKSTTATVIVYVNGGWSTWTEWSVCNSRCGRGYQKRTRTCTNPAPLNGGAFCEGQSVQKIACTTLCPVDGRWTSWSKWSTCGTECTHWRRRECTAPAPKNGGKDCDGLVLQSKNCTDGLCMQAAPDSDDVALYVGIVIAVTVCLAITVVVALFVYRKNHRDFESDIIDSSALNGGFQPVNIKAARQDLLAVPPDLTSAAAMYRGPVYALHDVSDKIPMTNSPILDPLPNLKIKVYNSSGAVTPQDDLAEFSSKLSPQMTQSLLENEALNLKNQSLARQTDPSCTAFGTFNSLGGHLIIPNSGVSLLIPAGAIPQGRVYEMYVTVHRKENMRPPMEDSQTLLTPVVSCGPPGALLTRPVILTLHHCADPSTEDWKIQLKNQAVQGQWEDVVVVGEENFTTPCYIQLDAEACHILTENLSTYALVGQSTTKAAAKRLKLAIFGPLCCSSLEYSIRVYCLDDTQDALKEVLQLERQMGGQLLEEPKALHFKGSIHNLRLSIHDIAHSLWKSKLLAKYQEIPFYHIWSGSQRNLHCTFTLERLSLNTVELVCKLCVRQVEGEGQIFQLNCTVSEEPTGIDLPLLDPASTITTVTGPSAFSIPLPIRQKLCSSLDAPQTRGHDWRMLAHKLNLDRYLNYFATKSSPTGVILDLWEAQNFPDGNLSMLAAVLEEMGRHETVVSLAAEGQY
substance,measurement,value
Unc5c-Myc (from UniProt O08747 41-931) (receptor),percent reduction of the interaction against wild-type EphB2-GFP,67%
